Measured values taken from the DeepSol protein solubility set.

experiment: soluble on expression in E. coli; label from the status in PepcDB or PDB records

| Sequence | soluble on expression in E. coli |
| --- | --- |
| MGSDKIHHHHHHMIACENSGHSIPDDFPEVRKIVEAGVTTNPKKDYELSRYACYLIVQNGDPRKEVIALGQTYFAIQTYRQEVADHFNELDEDNRRLVVRGDIKQWNQMLAETAHNAGVITNEEFAIFQNAGYMGLYGGLDVEGILAAVYQSVFGGDVYLSLEEKVANLLFNEIGNSQVV | not soluble |
| MGSDKIHHHHHHEYKNVNEIIVEELEIPVPLGDPFILLHNGTYYAYGTHSDEGIEVYISDNLKTWKYKGLALNKKDSWADRWFWAPEVYEVNGKFYMYYSADEHICVAVADSPVGPFIQNKQEPMIVEEKCIDNSFFMDDDGTPYLSFVRFNDGNNVWIAELEKDLITLKKETMRPCIHVSQAWEEVWPRVNEGSYILKHNGIYYMTYSANSYESPFYGVGCATATDIMGEWAKYDENPLLQNPGGLVGVGHSAMFTDKEGKLRIVFHAHKDKSNIHPRAMYIGTVNFENVNGTDRMRISKEYITPKLLQ | not soluble |
| MAVVFKKTEGLQDTQTHYCPGCTHGIIHRLVGEVLEELGVLGDAVGVVPVGCSVLGYKYFNCDTQEAAHGRAPAAATGIKRVHPENTVFTYQGDGDLASIGTAEIVHAAARGEKITTIFVNNTTYGMTGGQMAPTTLVGQRATTAQSGRNAETQGYPIRVSEMLATLTGAVFVERVAVDTPAHVRQAKKAIKKAFQVQQAGLGFGIVEVLSTCPTNWGLAPNDALQWLRDNMIPYYPLGNFKNVEVEEVK | not soluble |
| MRRLLLASSLLTLLAGCANHVIDPHGYDETGTAAYYGTRHHGNRTASGEPFNQNALTAAHRQLPFGTRVKVTNLNNDKSVIVRVNDRGPHTRGRLIDVSREAAEQLGMLRSGTAPVRVQALD | not soluble |
| MAHHHHHHMSFCDFVVVTNNSVEIFKISFDNLIITPIKKHFIKSKHCWYDEKSSYICLLSANKSNVILPYLLSNNNVIKLSKIELNILKNDNINKNDIEIITLYNETYCIHKDFKNGRISFRCLSSTIYFDYVLDLFYNGVIETFSLDNLFGVFNHTNQYVYLFDIKYNKKKTTIHSFDDNNNHTINISYLTTPKQFKTQINFNHMAFEPYNLLIDNHYGNVYKVKVDYDVLMLQICQHFSNLVRT | soluble |
| VDKIYVIEENDPFIEEQIKAYGIDCIGKDVIPPYGEMTPDVLRKAIFGKTNDTIEYKSELVTPRPPSFCAGCPHRGFFYELGKRKNLIVGGDIGCYTLGFAPPYNGIDYVVCMGSAFGTAHGAQKVLNMKDDNEKRLVGVLGDSTFFHTGINGLLDVVYNRGNSISVILDNRITGMTGHQENPGSGYTLQGAKTKEVDIEGLVKACGIEHVRVINPNNLKEVNEALDWALAIEDEPSVIIT | not soluble |
| MSLSVPLLSRVGADRADRLRTDMEAAAAGWPGAALLRVDSRNRVLVANGRVLLGAAIELADKPPPEAVFLGRVEGGRHVWAVRAALQPIADPDIPAEAVDLRGLGRIMDDTSSQLVSSASALLNWHDNARFSALDGAPTKPARAGWSRVNPITGHEEFPRIDPAVICLVHDGADRAVLARQAAWPERMFSLLAGFVEAGESFEVCVAREIREEIGLTVRDVRYLGSQQWPFPRSLMVGFHALGDPDEEFSFSDGEIAEAAWFTRDEVRAALAAGDWSSASESKLLLPGSISIARVIIESWAACEEGHHHHHH | soluble |
| GPGSPSEENEGRQFIVCYYLADDTVSVFELQVPNSGHVGGKIFARRAVENLQDPTLLKVGNTIRLDGVDYLLKEMDERTKRYLEMGMPNMDESYFRTQEILGIAASYLQQQFSRITDAFRHYASSSTQGLTRENVREMLSDAGVHATDAELTNVMERADGDKDGWVSLADFTEQFMQQLFISNFKPRESQKRWGDTRNGVVVQRG | soluble |
| MGHHHHHHSHMRKIDLCLSSEGSEVILATSSDEKHPPENIIDGNPETFWTTTGMFPQEFIICFHKHVRIERLVIQSYFVQTLKIEKSTSKEPVDFEQWIEKDLVHTEGQLQNEEIVAHGSATYLRFIIVSAFDHFASVHSVSAEGTVVSNLSS | soluble |
| MSLKVAVVGLGDISHVHIHAIQNSTKAQLVAVCDENEKLSQQVPHVNYYNDLQTMIDSETLDCVHICLPHYLHVSATTTCVENGINVLQEKPLAVNAKEGLELVKLQRKYPNIKIGICFQNRYNATFQALQEIVESKTYGEVIGVKGLVTWFRPESYYTDKPWRGQMATAGGGVLINQSIHTLDLIQLLCGKIASIKGTVSQLLDYDIEVEDTASAHIKFENKANGMFFATNANFGNSNVELQIIFENEKFTIKDNILTRFNEAGEKIKIAEDEKMTGNKTYYGPSHGKLINAFYDCINNDSNNYVHPKDALTSIAMIDAIQKSSESLKTVQFDSEGHHHHHH | soluble |
| WSGVMEWQEPRPEPNSRSKRWLPSHVYVNQGEILRTEQWPRKLYMQLIPQQLLTTLVPLFRNSRLVQFHFTKDLETLKSLCRIMDNGFAGCVHFSYKASCEIRVLMLLYSSEKKIFIGLIPHDQGNFVNGIRRVIANQQQVLQRNLEQEQQQRGMGG | not soluble |
| MTRLTVFKPRSLVSILMFTTVWAVGSASASTLDLEAQRAQYDKAQRWLDEKNVAQYQRIRKQIDSYPLTPYLDYRAFLIDLGSKPPIAVRNFIDSHKEYPFSARIAAPYLDALARSKKWSALLQFQTQLPNGETYQCHYYNAKLQTGKRNEAFEGAKKLWLNGASIADACDPLFAEWDRVGGLSDDWVLKRALLAFEGRNRNLIVYLQKKLDGKKSQAKAQGMLELFDKPERVLAYSRKASQDPINQKLAELALQKWARSEPQEAQAVFNDVAKAQGWNQEQKGRVARFIAIRLMDTEEAAIAKWRDEVTRTSQDVRLIEARIRLALRENDWRGLSQWIAVLPEQERKTLRWQYWQGRSEIALGKKKEGTERLKALLGQRSFYSVAAAKILQQSVNYPTSTVTLDMKQIKAHKKALARIDELIALDKVPAAKSEWRWLLDRVSQKEKEMLAAYAADSGWYQMTIAATISASLWDNNQLRFPVVHQNLFTLHGRKNGVDPITLMSLARQESALNPDAQSPVGARGLMQIMPDTARYTARKYQLSYSNPDELYQVGKNIEIGSRYLSSLLERYDQNRILAFAAYNAGPSRVDSWLKRSQGKLDAYGFIEAIPFAETRGYVQNILMFETYYRDLMGVQGRFLNEHELNTKY | soluble |
| MSLKPTKIFAFGGLEEVGKNMYGIEYDDELIIVDCGIKFSSVELLGIDGIVPNFAYAKANQHKIKALVITHGHEDHIGGIPYLLREVSVPVIYAPLMATKLIEKKLHEHHNLNQYKIVSYNDKSEFSTKHFKIDFYRVCHSIPDAFGVCVQTPNGNIVESGDYRFDFNAGNEELDIHKVVEISRRGIDLFMTETTNAEIPGFSSSEKEIYDNIKNIIKNANGRVILSTFASNVTRISEVIEIAIQHGRKICLLGKSMDNNVSISRDVGYINLKDDDIVESRYVEQHPDNEIMIFCTGSQGEELAALNMLASGRHPWIQLKKTDSIIMSSNPIPGNYAAVERLLNELSKEEGISIYENSPTLKLHASGHATMQEIQLMLSLLRPKYLFPIHGEYKMFTSLKRIAKKCGFDPENVALHKNGQIVYLIDREGHHHHHH | soluble |
| MGHHHHHHSHMTNQNVLLNISGVKFVLRIPNAVNLSLINREYEAFNNAQAYRAGLNVETPVLDAKSGVKLTRYLENSNTLSQIQLNEQSCLSQVVNNLYRLHNSEFVFRNVFSVFDEFRQYFSLLENKSAFYQADSRMDKLSAVFWQFEEINKEVILRPCHNDLVPENMLLQDDRLFFIDWEYSGLNDPLFDIATIIEEAHLSKEAADFLLETYCNQTNKYHKTEFQIAHKRLKIHRFCQNVLWFLWTKVKEEHGENFGDYALKRLDAAFKLLEELP | soluble |
| MRNVLKAETLERKFPLLSVENGCIVSKDADLTVAFEVELPELYTVTAEEYEAMHSTWIKAARVLPEHSIVCKQDWFTKESYRPQNGGEEQSFLSRSYERHFNERPYLNHRCFLYLTKTTRERNRRQSDFSTLCRGFLLPREITDKDMAARFLEAVEQFEHIVNDSGHIRLRRLETEEITGTRERPGLVEKYLSLSMEDETAVLQDICLKPGRMRIGDKRLCLHTLSDTEDLPGKLSTDMRYERMSTDRSDCRLSFAAPVGLLLSCNHIYSQYVFIDNAQKILQMMEKNSRNMLSLSQYSRSNAVNQEWTEMYLDEAHTKGVLPVRCHCNVIAWAEDAEEFRRIRNDTGSQLAMMECTPRYNTVDTPVLYWAGIPGNAGDFPAEESFYTFLEQAVCLFAGETNYRSSPSPFGIRMADRQNGIPVHVDISDLPMKRGIITNRNKFILGPSGSGKSFFTNHLVRNYYEQGAHILLVDTGNSYQGLCRMIHERTRGGDGIYITYEEDNPISFNPFYTDSGQFDVEKRESIKTLILTLWKREDEAPKRSEEVALSGAVNAYIRKITENREARPDFNGFYEFVDGDYRRMIAEKKVREKDFDIDGFLNVLEPFYKGGDYDFLLNSDRELDLTNRRFIVFELDNISGNKVLLPVVTLIIMETFIAKMRRLKGIRKVILIEECWKALMSANMSGYIQYLFKTVRKYFGEAVVVTQEVDDIISSPIVKEAIINNSDCKILLDQRKYMNKFEHIQRLLGLTEKEKSQILSINQANHPGRFYREVWIGLGGTRSAVYATEVSAEEYFTFTTEESEKLEVQRLAEELDGNLELAIRRMAERKREEQRQVSIPKREQ | not soluble |
| KRVFGFVSAKGGDGGSCIAANFAFALSQEPDIHVLAVDISLPFGDLDMYLSGNTHSQDLADISNASDRLDKSLLDTMVQHISPSLDLIPSPATFEKIVNIEPERVSDLIHIAASFYDYIIVDFGASIDHVGVWVLEHLDELCIVTTPSLQSLRRAGQLLKLCKEFEKPISRIEIILNRADTNSRITSDEIEKVIGRPISKRIPQDEDAMQESLLSGQSVLKVAPKSQLSKTIVDWALHLNGVSRPNKRSIWERLKIK | soluble |
| MPHKNTKSNVQKITASVASVIVSTGIVMNSSNRRVKATGKREDEIVEVESLKRADTETTKAAAVQTPKINQTKKMSHRTQKVTQMIHYVDEDERPVYDDYTASLIFEQTGILDNVTGKQTWNSNWLPKTTATFSAVEHPVVRNHHLVNPEINEVSAYDVEVTDDTFKNPLLKVHKVVYAHDIEPIKRTQVVTQTIHYRYEDGAVAHDDHVVSLIFTQSGKRDLTNGKEIWDSKWSLTQTFEALPSPVIIGYTADKPMVGPDEVTVDSKNFLDKQNREETVIYSANTITQNKKDGISEEKNVNNSVAVAPLKSAVMIGGVISILKFKRLMVIIKNKKDHKLEHHHHHH | soluble |
| MSLDAHAQSYYRDCYRGAANMVRAMQKRANTLLSAGQTIADRQHKFIRSGRLRDKQPLTMTLIAQEAGLNKSTISRALSNCRIRLDSGIFPAEHFLARPLSDDTPDRTRDQVLQRLRLLIETENPRSPMSDQVLARQLGKARLSISRRTVAKYRQFLQIPGAYERKRNTEGHHHHHH | not soluble |
| CRYVARNGFQGVIVQCETSDGDDIPAEDDREGPPLSRGVFYNDGYDERQGKLILGIFPTGQCPSPIGNGSGTATDVTGEPEKTFSGRGFGRTSPTGMMSSLGAQREMTGLYDLPTTNGNDGEKPADPNGEGRGFTNKNAGTSCTEANAHT | soluble |
| MRIVQATLEHLDLLAPLFVKYREFYGMLSYPESSRKFLEKRLRRKESVIYLALADEEDRLLGFCQLYPSFSSLSLKRVWILNDIYVAEEARRQLVADHLLQHAKQMARETHAVRMRVSTSVDNEVAQKVYESIGFREDQEFKNYTLPISDELS | soluble |
| MDAAVIVPAYNEAESLARCLAPFESQPVELVVVVGGDDGTEQVARDTPFVDTVVRCDEGGAGIARNRGAAAATAPILLFTDADTVVPEDWVRLHLRHYADDEVIGVGGPARPLEDSLKHRVLFKLLSDYWYRVSWPLGFVQQPGFNCSFRADAFKAAGGFNEDIPFMEDTELSLRMKDYGRIVYDADSCVATSARREADEGYVSLFAKYVRGYANHYILRREFDADYFLEHHHHHH | not soluble |
